Assay [1] relates to Primary human cardiac fibroblasts. Nature of the assay: IL-11 stimulation time course, western blot. As to conditions: IL-11 10 ng/ml, 15 mins, 2, 4, 6 or 24 hours. Type of assay: cell-based. The procedure:
FIG. 15. Western blot image showing the levels of p-LKB1, LKB1, p-mTOR, mTOR in primary human cardiac fibroblasts that are stimulated with IL11 (10 ng/ml), for 15 minutes, 2 hours, 4 hours, 6 hours, or 24 hours.
Primary human cardiac fibroblasts were stimulated with IL-11 (10 ng/ml), for 15 mins, 2, 4, 6, or 24 hours and the levels of phosphorylated LKB1 (p-LKB1), LKB1, phosphorylated mTOR (p-mTOR) and mTOR were measured by western blot.
On the technique in general: In western blotting, separated proteins are transferred to a membrane and probed.

In another assay the test system is A549 cells. Nature of the assay: IL-11 stimulation of A549 cells overexpressing human LKB1, western blot. Type of assay: cell-based. As to conditions: IL11 10 ng/ml; AAV8 human LKB1. The procedure: FIG. 16. IL-11 stimulates ERK-mediated phosphorylation of LKB1 serine 325(S325) and P90RSK-mediated phosphorylation of LKB1 serine 428 (S428) with subsequent inactivation of AMPK and activation of mTOR, P70RSK and S6RP. (16A) A549 cells were infected with AAV8 encoding human LKB1 (multiplicity of infection=20) for 24 hours and then stimulated with IL11 (10 ng/ml) for the indicated times (15 minutes, 2 hours, 4 hours, 6 hours, or 24 hours). Cell lysates were immunoblotted for the proteins shown. (16B) Schematic of activation of ERK (directly) and P90RSK (indirectly) by IL-11-mediated signalling and downstream effects on hallmarks of ageing. P or p; phosphorylated amino acid.
To determine the mechanism through which IL-11 stimulates phosphorylation of LKB1, A549 cells were engineered to overexpress human LKB1 (AA8-LKB1 in FIG. 16A) and treated with IL-11.

In assay [2] the test system is Human hepatic stellate cells. Nature of the assay: IL-11 stimulation of cells overexpressing wild-type LKB1, western blot. As to conditions: IL11 10 ng/ml, 2 hours. Type of assay: cell-based. The procedure:
(§1) FIG. 17. Human hepatic stellate cells (17A) and hepatocytes (17B) were infected with AAV8 encoding human LKB1 (multiplicity of infection=20) for 24 hours and then stimulated with IL11 (10 ng/ml) for 2 hours. Cell lysates were immunoblotted for the proteins shown.
(§2) Human hepatic stellate cells (FIG. 17A) and human hepatocytes (FIG. 17B) were engineered to overexpress the wild-type LKB1 and a double mutant S325A, S428A (DM-LKB1). FIGS. 17A and 17B confirm that stimulation with IL-11 induces phosphorylation at […] in the WT LKB1 cells. As expected, phosphorylation is not observed in the double mutant LKB1 cells.

Assay [3] relates to human hepatocytes. The assay is described as above. As to conditions: IL11 10 ng/ml, 2 hours. Type of assay: cell-based. The procedure: as §1, §2
Assay [4] concerns Primary human hepatic stellate cells. Nature of the assay: IL-11 stimulation in the presence of DMSO or U0126, western blot. Type of assay: cell-based. As to conditions: IL-11 treatment 24 hours. The procedure:
FIG. 21. Western blot image showing the levels of p-ERK, ERK, p-P90RSK, P90RSK, p-LKB1, LKB1, p-AMPK, AMPK, p-mTOR, mTOR, p-p70S6K, p70S6K, p-S6RP, S6RP, SMA, and GAPDH in primary human hepatic stellate cells that are unstimulated (BL+DMSO) or stimulated for 24 hours with IL11 in the presence DMSO or U0126 (10 μM).
(§3) Primary human hepatic stellate cells and human hepatocytes were stimulated for 24 hours with IL-11 in the presence DMSO or U0126. As discussed in Example 4.4, the inventors observed that IL-11 treatment stimulates p-mTOR, p-70S6K and p-S6RP. In line with the inventors' hypothesis, administration of U0126 to IL-11-stimulated cells prevents ERK-mediated inactivation of LKB1/AMPK that stops IL11-induced mTORC1/P70S6K activation (FIG. 21 and FIG. 22, respectively).

Assay [5] has as its system human hepatocytes. The description is as above. Type of assay: cell-based. As to conditions: IL-11 treatment 24 hours. The procedure: FIG. 22. Western blot image showing the levels of p-ERK, ERK, p-P90RSK, P90RSK, p-LKB1, LKB1, p-AMPK, AMPK, p-mTOR, mTOR, p-p70S6K, p70S6K, p-S6RP, S6RP in primary human hepatocytes that are unstimulated (BL+DMSO) or stimulated for 24 hours with IL11 in the presence DMSO or U0126 (10 μM).
as §3

Assay [6] relates to Primary human hepatic stellate cells (HSCs). Nature of the assay: Increasing concentrations of IL-11 or IL-6, western blot p-LKB1/p-AMPK. Type of assay: cell-based. As to conditions: 24 hours; p-LKB1, p-AMPK. The procedure:
(§4) FIG. 23. Western blot image showing the levels of p-LKB1, LKB1, p-AMPK, AMPK in primary human hepatocytes or primary human hepatic stellate cells that are unstimulated (BL) or stimulated for 24 hours with increasing concentrations (1.25, 2.5, 5, 10 or 20 ng/ml) of IL-11 or IL-6.
(§5) Primary human hepatic stellate cells (HSCs) and human hepatocytes were stimulated for 24 hours with increasing concentrations (1.25-20 ng/ml) of IL-11 or IL-6. […] The effect of IL-11 on these markers is observable at concentrations as low as 1.25 ng/ml in both HSCs and hepatocytes.

Assay [7] has as its system human hepatocytes. The assay is described as above. Type of assay: cell-based. As to conditions: 24 hours; p-LKB1, p-AMPK. The procedure:
as §4, §5

The target of another assay is T1, IL-11Rα (Homo sapiens, UniProt Q14626).
T1 sequence (Q14626 23-422): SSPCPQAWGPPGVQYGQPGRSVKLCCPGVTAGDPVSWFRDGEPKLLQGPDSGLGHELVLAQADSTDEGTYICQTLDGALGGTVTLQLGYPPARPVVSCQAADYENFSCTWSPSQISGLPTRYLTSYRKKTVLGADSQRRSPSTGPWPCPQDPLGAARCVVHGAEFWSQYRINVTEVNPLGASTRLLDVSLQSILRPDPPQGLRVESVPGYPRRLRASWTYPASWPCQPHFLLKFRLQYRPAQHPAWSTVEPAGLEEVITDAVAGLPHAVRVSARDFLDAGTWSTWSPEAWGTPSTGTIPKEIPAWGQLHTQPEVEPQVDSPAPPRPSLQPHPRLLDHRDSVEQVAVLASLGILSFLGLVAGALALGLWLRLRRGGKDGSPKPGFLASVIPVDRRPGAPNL
As to conditions: low affinity binding to IL-11Rα alone; cited from earlier work.

B1: IL-11: Interleukin 11, pleiotropic cytokine of the IL-6 family, used to stimulate cells (protein)
chain: PGPPAGSPRVSSDPRADLDSAVLLTRSLLADTRQLAAQMRDKFPADGDHSLDSLPTLAMSAGTLGSLQLPGVLTRLRVDLMSYLRHVQWLRRAGGPSLKTLEPELGALQARLERLLRRLQLLMSRLALPQAAPDQPVIPLGPPASAWGSIRAAHAILGGLHLTLDWAVRGLLLLKTRL
Take B1: the “level of phosphorylated LKB1 and phosphorylated mTOR” value in assay [1] is on record as “increases”. For the same molecule, the “ERK-mediated phosphorylation of LKB1 Serine 325 (S325) and P90RSK-mediated phosphorylation of LKB1 serine 428 (S428)” value with A549 cells is reported as “stimulates”. Further, the “phosphorylation at S428 and S325 in the WT LKB1 cells” value (in assay [2]; in the assay with human hepatocytes [3]) was “induces” each time. In addition, the “p-mTOR, p-70S6K and p-S6RP” value (in assay [4]; in the assay with human hepatocytes [5]) was “stimulates” throughout. In addition, the “lowest concentration at which the effect on these markers is observable” value (in assay [6]; with human hepatocytes [7]) was 1.25 ng/mL in each case. Further, the dissociation constant (Kd) (commonly the equilibrium constant for the complex coming apart) with IL-11Rα is ~22 nM.

The values are drawn from patent US20230399393A1, “METHODS TO EXTEND HEALTH-SPAN AND TREAT AGE-RELATED DISEASES” (National University of Singapore, priority 2020, published 2023).
